Molecular target: T1, 6xHis-SAMHD1 wild-type (full-length, recombinant) (human, UniProt Q9Y3Z3 1-626)
T1 construct: SAMHD1, full-length, from pET14b-6xHis-SAMHD1 (gift from Dr. Baek Kim); with N-terminal His tag and linker region, calculated molecular weight 74 kDa; Tetramer only stated after preincubation with dGTP; also called recombinant SAMHD1; SAMHD1 WT protein; source: E. coli BL21 Rosetta, purified (His-Trap, Superdex 200 SEC); not shown: His6, N-terminal, kept
Test: pull-down; GST-SIRT1 (193-741) pre-incubated with glutathione-agarose beads in 50 mM Tris-Cl pH 8, 150 mM NaCl, protease inhibitors, 1 h at 4 °C; recombinant SAMHD1 added for 2 h at 4 °C; blots with anti-SAMHD1 or anti-GST
Conditions: both partners purified

T1 sequence (Q9Y3Z3 whole entry): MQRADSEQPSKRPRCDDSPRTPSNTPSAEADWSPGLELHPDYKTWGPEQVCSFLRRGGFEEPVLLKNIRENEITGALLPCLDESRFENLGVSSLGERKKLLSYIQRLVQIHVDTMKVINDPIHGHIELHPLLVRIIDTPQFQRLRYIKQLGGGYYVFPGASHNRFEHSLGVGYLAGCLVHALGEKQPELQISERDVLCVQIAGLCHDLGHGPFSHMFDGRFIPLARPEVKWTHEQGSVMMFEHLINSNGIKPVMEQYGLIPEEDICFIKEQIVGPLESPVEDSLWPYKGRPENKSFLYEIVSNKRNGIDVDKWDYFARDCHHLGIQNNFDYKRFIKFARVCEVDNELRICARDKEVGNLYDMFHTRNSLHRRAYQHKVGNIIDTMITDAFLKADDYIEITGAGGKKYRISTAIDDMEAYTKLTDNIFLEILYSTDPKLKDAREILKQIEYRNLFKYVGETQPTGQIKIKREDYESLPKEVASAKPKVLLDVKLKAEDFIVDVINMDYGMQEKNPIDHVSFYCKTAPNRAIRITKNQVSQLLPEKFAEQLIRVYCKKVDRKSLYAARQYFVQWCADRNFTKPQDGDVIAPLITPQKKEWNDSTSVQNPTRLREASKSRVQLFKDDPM

B1: GST-SIRT1 (containing amino acids 193-741 of SIRT1) (domain or fragment, UniProt Q96EB6 193-741, looked up)
chain: MIGTDPRTILKDLLPETIPPPELDDMTLWQIVINILSEPPKRKKRKDINTIEDAVKLLQECKKIIVLTGAGVSVSCGIPDFRSRDGIYARLAVDFPDLPDPQAMFDIEYFRKDPRPFFKFAKEIYPGQFQPSLCHKFIALSDKEGKLLRNYTQNIDTLEQVAGIQRIIQCHGSFATASCLICKYKVDCEAVRGDIFNQVVPRCPRCPADEPLAIMKPEIVFFGENLPEQFHRAMKYDKDEVDLLIVIGSSLKVRPVALIPSSIPHEVPQILINREPLPHLHFDVELLGDCDVIINELCHRLGGEYAKLCCNPVKLSEITEKPPRTQKELAYLSELPPTPLHVSEDSSSPERTSPPDSSVIVTLLDQAAKSNDDLDVSESKGCMEEKPQEVQTSRNVESIAEQMENPDLKNVGSSTGEKNERTSVAGTVRKCWPNRVAKEQISRRLDGNQYLFLPPNRYIFHGAEVYSDSEDDVLSSSSCGSNSDSGTCQSPSLEEPMEDESEIEEFYNGLEDEPDVPERAGGAGFGTDGDDQEAINEAISVKQEVTDMN
notes: SIRT1 amino acids 193-741, recombinant, lacking N-terminal amino acids 1-192; The results call it bacterially-purified; also called GST-SIRT1 (lacking N-terminal amino acids 1–192); source: bought: Active Motif # 31533
Q: Does B1 bind?
A: binds

Reference: publication PMC9640623, “SAMHD1 deacetylation by SIRT1 promotes DNA end resection by facilitating DNA binding at double-strand breaks” (Nature Communications, 2021)
